Read-outs that look alike come from different tables or passages of the source.
Columns and labels:
[1] = HPAE-PAD check of transglycosylation products from ONPG; assay type: biochemical; conditions: HIGAL 110 μg/ml; ONPG 5 mg/ml with and without Gal2 or Gal3 0.05 mg/ml; room temperature, pH 6.5
Description: Using HPAE-PAD chromatography (Dionex LC-500 System, PA-100 column, linear gradient of 0-0.6 M sodium acetate in 100 mM NaOH), the production of larger oligosaccharides from transglycosylation upon incubation of HIGAL (110 μg/ml) at room temperature (0.5 to 14 min followed by heat inactivation for 10 min at 95° C. resulting in A405: 0.15-0.67) in 50 mM sodium acetate, 1 mM CaCl2, 0.01% Triton X-100, pH 6.5 with ONPG (5 mg/ml) with and without Gal2 (0.05 mg/ml) or Gal3 (0.05 mg/ml) as acceptor was verified.

[2] = Activity on galactobiose (Gal2); assay type: biochemical; conditions: in 24 hours; buffer, pH and temperature per enzyme
Description: (§1) The activity on the galacto-oligosaccharide substrates prepared as described above and on the commercially available galactobiose (Gal2, Megazyme) was studied for the four purified galactanases HIGAL, MTGAL, AAGAL and BLGAL. The buffers and temperatures used were: 25 mM sodium acetate, 0.5 mM CaCl2, 0.005% Triton X-100, pH 6.5 at 37° C. for HIGAL and MTGAL, 50 mM sodium acetate, 1 mM CaCl2, pH 4 at 30° C. for AAGAL and 50 mM Mes, 1 mM CaCl2, pH 6.5 at 30° C. for BLGAL. Enzyme concentrations used were 0.8 μg/ml for HIGAL, 0.2 microgram/ml for MTGAL, and 10 micrograms/ml for AAGAL and BLGAL. With HIGAL and MTGAL substrate concentrations were all 0.25 mg/ml, whereas 0.34 mg/ml Gal2, 0.050 mg/ml Gal3 and 0.067 mg/ml Gal4 were used for AAGAL and BLGAL. Enzyme activity in samples withdrawn after various incubation times was inactivated by heating to 95° C. for 10 min. Compositions of reaction products were analysed using HPAE-PAD (Dionex) applying a PA-100 column and a linear gradient of sodium acetate (0-0.18 M) in 0.15 M NaOH. Response factors of the individual carbohydrates were estimated from reference runs with MeGal3, MeGal4, Gal, Gal2, Gal3 and Gal4. Selected results are shown in Tables 2-8 below (the figures indicating weight percentage of glactooligosaccharides).

[3] = assay type: biochemical; conditions: for Gal2 in reaction products / Gal3 in reaction products / Gal4 in reaction products / Gal in reaction products: Gal4 0.25 mg/ml, pH 6.5, 37° C.
Description: as §1

[4] = Activity on lactose, products by HPAE-PAD; assay type: biochemical; conditions: lactose 100 mg/ml, 50° C., pH 6.45
Description: HIGAL (60 micrograms/ml) and MTGAL (750 μg/ml) were incubated at 50° C. with lactose (Lac) (100 mg/ml) at pH 4.8 (25 mM sodium citrate), 6.45 (25 mM sodium acetate, 0.5 mM CaCl2, 0.005% Triton X-100) and 8.6 (50 mM Tris, 0.01% Brij 35). 20 microliters samples were withdrawn after 2, 23 and 120 hours, 980 water added and enzyme inactivated by heating to 95° C. for 10 min. After a further 20 time dilution with water, samples were analysed using HPAE-PAD (Dionex LC-500 system, PA-100 column, 0-3 min: 150 mM NaOH, 3-19 min: linear gradient 0-0.18 M sodium acetate in 150 mM NaOH). Response factors for the individual peaks were estimated from standards of Gal, Glu, Lac, Gal2, Gal3 and Gal4.
In Tables 12 and 13 weight fractions of the analysed products with MTGAL at pH […] and 6.45 are given. The figures indicate weight % of the products resulting from the incubation. The term DP3 indicates transglycosylation product consisting of three sugar units, and the term DP4+ transglycosylation products consisting of four or more sugar units. Unfortunately, the analysis method used was not able to separate Glu and Gal.

[5] = pH profile of galactanase activity on lupin AZCL-galactan; assay type: biochemical; conditions: 15 min at 37° C., A590, unit assumed
Description: The pH profiles of the purified variants described above were established as follows: Galactanase activity at various pH was measured by mixing 500 μl 4 mg/ml lupin AZCL-galactan (Megazyme, Australia) in water with 500 μl buffer (50 mM sodium acetate, 50 mM potassium dihydrogenphosphate, 50 mM boric acid, 1 mM CaCl2, 0.01% Triton X-100 adjusted to pH 2.5, 3.5, 4.5, 5.5, 6.5, 7.5, 8.5 or 9.5 with HCl/NaOH) and 25 μl purified enzyme diluted to about 0.5-2 μg/ml in water. The mixture was incubated 15 min at 37° C., insoluble material was removed by centrifugation, and absorbance in the supernatant was measured at 590 nm.

[6] = Activity on lactose, products by HPAE-PAD; assay type: biochemical; conditions: lactose 100 mg/ml, 50° C.
[7] = pH 4.5, incubation time 2 hours
[8] = pH 4.5, incubation time 23 hours
[9] = pH 4.5, incubation time 120 hours
[10] = pH 6.45, incubation time 120 hours

B1: HIGAL: GH Family 53 galactanase from Humicola insolens, SEQ ID NO: 2 (wild type parent) (protein, listed as Humicola insolens)
chain: ALQYKGVDWSSVMVEERAGVRYKNVNGQEKPLEYILAENGVNMVRQRVWVNPWDGNYNLDYNIQLARRAKAAGLGLYINFHYSDTWADPAHQTTPAGWPSDINNLAWKLYNYTLDSMNRFADAGIQVDIVSIGNEITQGLLWPLGKTNNWYNIARLLHSAAWGVKDSRLNPKPKIMVHLDNGWNWDTQNWWYTNVLSQGPFEMSDFDMMGVSFYPFYSASATLDSLRRSLNNMVSRWGKEVAVVETNWPTSCPYPRYQFPADVRNVPFSAAGQTQYIQSVANVVSSVSKGVGLFYWEPAWIHNANLGSSCADNTMFTPSGQALSSLSVFHRI
modifications: mat_peptide (1)..()
Production of larger oligosaccharides from transglycosylation [1]: verified | Activity on Gal2 [2]: Neither of the enzymes HIGAL, MTGAL, AAGAL or BLGAL had any detectable activity | Products of Gal4 (galactotetraose) degradation [3]: mainly to Gal and Gal2, whereas Gal3 did not accumulate | Gal2 in reaction products ([3]; incubation time 0.0 hours): 0.0 weight percentage | Gal3 in reaction products ([3]; incubation time 0.0 hours): 42.0 weight percentage | Gal4 in reaction products ([3]; incubation time 0.0 hours): 58.0 weight percentage | Gal in reaction products ([3]; incubation time 0.0 hours): 0.0 weight percentage | Gal2 in reaction products ([3]; incubation time 0.5 hours): 8.1 weight percentage | Gal3 in reaction products ([3]; incubation time 0.5 hours): 43.2 weight percentage | Gal4 in reaction products ([3]; incubation time 0.5 hours): 42.9 weight percentage | Gal in reaction products ([3]; incubation time 0.5 hours): 5.8 weight percentage | Gal2 in reaction products ([3]; incubation time 2.2 hours): 21.9 weight percentage | Gal3 in reaction products ([3]; incubation time 2.2 hours): 39.8 weight percentage | Gal4 in reaction products ([3]; incubation time 2.2 hours): 21.6 weight percentage | Gal in reaction products ([3]; incubation time 2.2 hours): 16.7 weight percentage | Gal2 in reaction products ([3]; incubation time 5.0 hours): 34.8 weight percentage | Gal3 in reaction products ([3]; incubation time 5.0 hours): 23.9 weight percentage | Gal4 in reaction products ([3]; incubation time 5.0 hours): 5.7 weight percentage | Gal in reaction products ([3]; incubation time 5.0 hours): 35.6 weight percentage | Gal2 in reaction products ([3]; incubation time 72.0 hours): 33.6 weight percentage | Gal3 in reaction products ([3]; incubation time 72.0 hours): 0.9 weight percentage | Gal4 in reaction products ([3]; incubation time 72.0 hours): 0.2 weight percentage | Gal in reaction products ([3]; incubation time 72.0 hours): 65.2 weight percentage

B2: MTGAL: GH Family 53 galactanase from Myceliophthora thermophila, SEQ ID NO: 1 (wild type parent) (protein, listed as Myceliophthora thermophila)
chain: ALTYRGVDWSSVVVEERAGVSYKNTNGNAQPLENILAANGVNTVRQRVWVNPADGNYNLDYNIAIAKRAKAAGLGVYIDFHYSDTWADPAHQTMPAGWPSDIDNLSWKLYNYTLDAANKLQNAGIQPTIVSIGNEIRAGLLWPTGRTENWANIARLLHSAAWGIKDSSLSPKPKIMIHLDNGWDWGTQNWWYTNVLKQGTLELSDFDMMGVSFYPFYSSSATLSALKSSLDNMAKTWNKEIAVVETNWPISCPNPRYSFPSDVKNIPFSPEGQTTFITNVANIVSSVSRGVGLFYWEPAWIHNANLGSSCADNTMFSQSGQALSSLSVFQRI
modifications: mat_peptide (1)..()
DP3 in products ([4]; incubation time 2 hours): 1.4 weight % | Glu/Gal in products ([4]; incubation time 2 hours): 1.0 weight % | Lac/Gal2 in products ([4]; incubation time 2 hours): 95.7 weight % | DP3 in products ([4]; incubation time 23 hours): 6.3 weight % | Glu/Gal in products ([4]; incubation time 23 hours): 6.5 weight % | Lac/Gal2 in products ([4]; incubation time 23 hours): 85.3 weight % | Glu/Gal in products ([4]; incubation time 120 hours): 21.0 weight % | Galactanase activity at pH 2.5 ([5]; pH 2.5): 0% | Galactanase activity at pH 3.5 ([5]; pH 3.5): 12% | Galactanase activity at pH 4.5 ([5]; pH 4.5): 41% | Galactanase activity at pH 5.5 ([5]; pH 5.5): 63% | Galactanase activity at pH 6.5 ([5]; pH 6.5): 90% | Galactanase activity at pH 7.5 ([5]; pH 7.5): 100% | Galactanase activity at pH 8.5 ([5]; pH 8.5): 54% | Galactanase activity at pH 9.5 ([5]; pH 9.5): 7% | Activity on Gal2 [2]: Neither of the enzymes HIGAL, MTGAL, AAGAL or BLGAL had any detectable activity | Products of Gal4 (galactotetraose) degradation [3]: mainly to Gal and Gal2, whereas Gal3 did not accumulate | Gal2 in reaction products ([3]; incubation time 0.0 hours): 0.0 weight percentage | Gal3 in reaction products ([3]; incubation time 0.0 hours): 42.0 weight percentage | Gal4 in reaction products ([3]; incubation time 0.0 hours): 58.0 weight percentage | Gal in reaction products ([3]; incubation time 0.0 hours): 0.0 weight percentage | Gal2 in reaction products ([3]; incubation time 0.5 hours): 9.9 weight percentage | Gal3 in reaction products ([3]; incubation time 0.5 hours): 27.7 weight percentage | Gal4 in reaction products ([3]; incubation time 0.5 hours): 50.8 weight percentage | Gal in reaction products ([3]; incubation time 0.5 hours): 11.6 weight percentage | Gal2 in reaction products ([3]; incubation time 2.2 hours): 17.4 weight percentage | Gal3 in reaction products ([3]; incubation time 2.2 hours): 45.5 weight percentage | Gal4 in reaction products ([3]; incubation time 2.2 hours): 22.3 weight percentage | Gal in reaction products ([3]; incubation time 2.2 hours): 14.9 weight percentage | Gal2 in reaction products ([3]; incubation time 5.0 hours): 29.1 weight percentage | Gal3 in reaction products ([3]; incubation time 5.0 hours): 29.5 weight percentage | Gal4 in reaction products ([3]; incubation time 5.0 hours): 12.1 weight percentage | Gal in reaction products ([3]; incubation time 5.0 hours): 29.2 weight percentage | Gal2 in reaction products ([3]; incubation time 72.0 hours): 43.5 weight percentage | Gal3 in reaction products ([3]; incubation time 72.0 hours): 1.5 weight percentage | Gal4 in reaction products ([3]; incubation time 72.0 hours): 0.0 weight percentage | Gal in reaction products ([3]; incubation time 72.0 hours): 54.9 weight percentage | DP3 in products [6, 7]: 2.0 weight % | DP4+ in products [6, 7]: 0.5 weight % | Glu/Gal in products [6, 7]: 1.4 weight % | Lac/Gal2 in products [6, 7]: 96.0 weight % | DP3 in products [6, 8]: 7.0 weight % | DP4+ in products [6, 8]: 1.8 weight % | Glu/Gal in products [6, 8]: 12.5 weight % | Lac/Gal2 in products [6, 8]: 78.7 weight % | DP3 in products [6, 9]: 8.9 weight % | DP4+ in products [6, 9]: 1.1 weight % | Glu/Gal in products [6, 9]: 38.8 weight % | Lac/Gal2 in products [6, 9]: 51.2 weight % | DP4+ in products ([6]; pH 6.45, incubation time 2 hours): 1.9 weight % | DP4+ in products ([6]; pH 6.45, incubation time 23 hours): 1.9 weight % | DP3 in products [6, 10]: 11.7 weight % | DP4+ in products [6, 10]: 4.7 weight % | Lac/Gal2 in products [6, 10]: 62.6 weight % | Conversion of Lac ([6]; pH 4.5 and 6.5): significant conversion of Lac

— patent publication US8367390B2, “Galactanase variants” (Novozymes A/S, priority 2002, dated 2013)
